The source of these data is patent US20220073608A1 (JIANGSU HUAIYU PHARMACEUTICAL, published 2022).

Test [1] has as its target T1, biotinylated hSEMA4D ECD-His (human, UniProt Q92854 22-734, biotinylated with Biotin-X-X-NHS at a molar ratio of 8:1; sites not stated).
T1 construct: also called biotinylated immunogen; not shown: His tag of the pCP vector
T1 sequence: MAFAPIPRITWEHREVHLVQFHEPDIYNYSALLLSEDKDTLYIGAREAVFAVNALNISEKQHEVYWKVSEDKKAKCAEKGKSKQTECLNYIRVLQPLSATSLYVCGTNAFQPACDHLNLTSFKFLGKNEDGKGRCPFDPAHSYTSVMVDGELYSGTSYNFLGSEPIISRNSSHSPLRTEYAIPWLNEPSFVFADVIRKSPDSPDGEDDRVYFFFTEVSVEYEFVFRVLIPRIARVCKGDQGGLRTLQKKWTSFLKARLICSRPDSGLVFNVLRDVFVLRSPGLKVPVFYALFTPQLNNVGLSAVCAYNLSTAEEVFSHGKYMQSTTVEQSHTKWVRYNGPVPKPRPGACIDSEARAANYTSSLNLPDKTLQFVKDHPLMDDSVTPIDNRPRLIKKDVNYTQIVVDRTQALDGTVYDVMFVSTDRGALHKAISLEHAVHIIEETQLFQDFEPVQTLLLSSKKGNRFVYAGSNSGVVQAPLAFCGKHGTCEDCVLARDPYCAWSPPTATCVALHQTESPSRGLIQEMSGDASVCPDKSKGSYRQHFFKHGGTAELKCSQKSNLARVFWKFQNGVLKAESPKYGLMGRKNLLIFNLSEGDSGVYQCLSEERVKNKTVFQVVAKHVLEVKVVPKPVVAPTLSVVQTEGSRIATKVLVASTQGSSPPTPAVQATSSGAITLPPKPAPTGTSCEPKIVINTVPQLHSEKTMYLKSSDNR
Kind of test: FACS, blocking of biotinylated hSEMA4D ECD-His binding to 293F hPlexin B1 cells; Ab 66.7 nM. As to the method: (§1) The medium was aspirated, the cells were washed once with PBS buffer (purchased from Invitrogen), and then treated with cell dissociation fluid (TrypLE™ Express Enzyme, purchased from Life technology), and the cells were collected. After the cells counted, the cells were washed once with PBS phosphate buffer, and diluted to 1×10⁶ cells per milliliter, and added to the 96-well FACS reaction plate as 100 μL per well. 2% (w/w) fetal calf serum was added to PBS phosphate buffer as FACS buffer, with which the cells were washed once by centrifugation at 2000 rpm 4° C. Meanwhile, the purified leading antibody and biotinylated hSEMA4D ECD-His were mixed and incubated on ice for 30 minutes. Then 100 μL of the mixture was added to each well and the plate was incubated on ice for 1 hour. […] Cells were washed 2 times by centrifugation with FACS buffer. The cells were suspended with 200 μL of FACS buffer, and FACS (FACS Verse, purchased from BD) was used to detect and analyze the results. The results are shown in FIGS. 11A-11B and Tables 20-21.
A general note: In flow cytometry, cells or beads pass a laser one at a time.

The target of test [2] is T1, biotinylated hSEMA4D ECD-His. As to the kind of experiment: FACS, blocking of biotinylated hSEMA4D ECD-His binding to 293F hPlexin B1 cells; Ab 0.00427 nM. As to the method:
as §1

For test [3] the target is unchanged. Kind of test: FACS, blocking of biotinylated hSEMA4D ECD-His binding to 293F hPlexin B1 cells; Ab 0.107 nM. As to the method: as §1
The target is the same in test [4]. As to the kind of experiment: FACS, blocking of biotinylated hSEMA4D ECD-His binding to 293F hPlexin B1 cells; Ab 2.67 nM. As to the method: as §1
Test [5] shares this target. As to the kind of experiment: FACS, blocking of biotinylated hSEMA4D ECD-His binding to 293F hPlexin B1 cells; Ab 333 nM. As to the method: as §1

Numbering of substitutions follows the chain as printed.

B1: 32C8F10 (antibody, V domains shown)
VH: EVQLQQSGAELVRPGASVKLSCTASGFNIKDEYIHWVKQRPEQGLEWIGWIDPANGHTEYASRFQAKATITADTSSNTAYLQLSSLTSEDTAVYYCTTGDYDGFAYWGQGTLVTVST
VL: QIVLTQSPAIMSASPGEKVTISCSARSSVSYMYWYQQKPGSSPKPWIYRTSNLASGVPARFSGSGSGTSYSLTISSMEAEDAATYYCQHYHTYPYTFGGGTKLEIK
notes: Mouse monoclonal antibody purified from hybridoma supernatant on protein A
With B1, the “MFI (residual ligand binding)” value is 55.5 in test [1]; 471 in test [2]; 454 in test [3]; 333 in test [4]; 85.1 in test [5].

B2: 31C11G2 (antibody, V domains shown)
VH: B1 VH with A105V
VL: B1 VL with S22F
notes: as for B1
For the molecule B2, the “MFI (residual ligand binding)” value in test [1] stood at 54.2; in test [2] it was 544; in test [3], 530; in test [4] it was 415; in test [5] it was 50.8.

B3: 31G10C5 (antibody, V domains shown)
VH: B1 VH with E32D, T58I, R63N, A105T
VL: B1 VL
notes: as for B1
Take B3: the “MFI (residual ligand binding)” value in test [1] came to 54.2; in test [2] it was 470; in test [3], 460; in test [4], 334; in test [5] it was 45.4.
